Assay results as given in patent US20260008865A1.

Experiments:
[1] = biological target: SelSP1 (PSGL-1 sulfopeptide); assay: SPR; SelSP1 surface (FC2) blocked with 40 µg/mL antibody, then 990 nM CCL27 as competitor; Rep. 1
[2] = biological target: SelSP1 (PSGL-1 sulfopeptide); assay: SPR; summary sentence in the description; target printed as PSGL-1, but the worked example used the PSGL-1 sulfopeptide SelSP1
[3] = biological target: SelSP1 (PSGL-1 sulfopeptide); assay: SPR; SelSP1 surface (FC3) blocked with 40 µg/mL antibody, then 990 nM CCL27 as competitor; Rep. 1
[4] = biological target: SelSP1 (PSGL-1 sulfopeptide); assay: SPR; SelSP1 surface (FC3) blocked with 40 µg/mL antibody, then 990 nM CCL27 as competitor; Rep. 2
[5] = biological target: SelSP1 (PSGL-1 sulfopeptide); assay: SPR; SelSP1 surface (FC2) blocked with 40 µg/mL antibody, then 990 nM CCL27 as competitor; Rep. 2
[6] = biological target: SelSP1 (PSGL-1 sulfopeptide); assay: SPR (SensiQ Pioneer), antibody captured on Protein G, SelSP1 as analyte, 25 °C, 1:1 model
[7] = biological target: SelSP1 (PSGL-1 sulfopeptide); assay: SPR; SelSP1 surface (FC2) blocked with 40 µg/mL antibody, then 990 nM CCL27 as competitor; Rep. 3
[8] = biological target: SelSP1 (PSGL-1 sulfopeptide); assay: SPR; SelSP1 surface blocked with 40 µg/mL antibody, then 990 nM CCL27 as competitor; average over FC2 and FC3 replicates
[9] = biological target: SelSP1 (PSGL-1 sulfopeptide); assay: SPR; SelSP1 surface (FC3) blocked with 40 µg/mL antibody, then 990 nM CCL27 as competitor; Rep. 3

B1: Parental antibody (antibody, V domains shown)
VH: DVQLVESGGGLVQPGGSRKLSCAASGFTFSSFGMHWVRQAPEKGLEWVAYISSASSTIYYADTVKGRFTISRDNPKNTLFLQMTSLRSEDTAMYYCASSYGYWGQGTTLTVSS
VL: DVVMTQTPLSLPVSLGDQASISCRSSRSLVHSNGNTYLHWYLQKPGQSPQLLIYKVSNRFSGVPDRFSGSGSGTDFTLKISRVEAEDLGVYFCSQTTHVPLTFGAGTRLELKR
Question: For B1, which Percent CCL27 Inhibition [1] is on record?
Answer: 57.1%

Question: What about the Kd [2] of the same binder?
Answer: 16.6 nM

Question: What about the Percent CCL27 Inhibition [3] of the same binder?
Answer: 50.5%

Question: What about the Percent CCL27 Inhibition [4] of the same binder?
Answer: 43.1%

Question: What about the Percent CCL27 Inhibition [5] of the same binder?
Answer: 50.6%

Question: And the Kd [6]?
Answer: 16.4 nM

Question: And the koff [6]?
Answer: 0.00497 s⁻¹

Question: And the kon [6]?
Answer: 303000 M⁻¹ s⁻¹

Question: What about the Percent CCL27 Inhibition [7] of the same binder?
Answer: 53.5%

Question: What about the Percent CCL27 Inhibition (Avg.) [8] of the same binder?
Answer: 50%

Question: What about the Percent CCL27 Inhibition [9] of the same binder?
Answer: 47%
